T1: human MerTK on M2c-differentiated human macrophages (human, UniProt Q12866 21-999)
T1 sequence: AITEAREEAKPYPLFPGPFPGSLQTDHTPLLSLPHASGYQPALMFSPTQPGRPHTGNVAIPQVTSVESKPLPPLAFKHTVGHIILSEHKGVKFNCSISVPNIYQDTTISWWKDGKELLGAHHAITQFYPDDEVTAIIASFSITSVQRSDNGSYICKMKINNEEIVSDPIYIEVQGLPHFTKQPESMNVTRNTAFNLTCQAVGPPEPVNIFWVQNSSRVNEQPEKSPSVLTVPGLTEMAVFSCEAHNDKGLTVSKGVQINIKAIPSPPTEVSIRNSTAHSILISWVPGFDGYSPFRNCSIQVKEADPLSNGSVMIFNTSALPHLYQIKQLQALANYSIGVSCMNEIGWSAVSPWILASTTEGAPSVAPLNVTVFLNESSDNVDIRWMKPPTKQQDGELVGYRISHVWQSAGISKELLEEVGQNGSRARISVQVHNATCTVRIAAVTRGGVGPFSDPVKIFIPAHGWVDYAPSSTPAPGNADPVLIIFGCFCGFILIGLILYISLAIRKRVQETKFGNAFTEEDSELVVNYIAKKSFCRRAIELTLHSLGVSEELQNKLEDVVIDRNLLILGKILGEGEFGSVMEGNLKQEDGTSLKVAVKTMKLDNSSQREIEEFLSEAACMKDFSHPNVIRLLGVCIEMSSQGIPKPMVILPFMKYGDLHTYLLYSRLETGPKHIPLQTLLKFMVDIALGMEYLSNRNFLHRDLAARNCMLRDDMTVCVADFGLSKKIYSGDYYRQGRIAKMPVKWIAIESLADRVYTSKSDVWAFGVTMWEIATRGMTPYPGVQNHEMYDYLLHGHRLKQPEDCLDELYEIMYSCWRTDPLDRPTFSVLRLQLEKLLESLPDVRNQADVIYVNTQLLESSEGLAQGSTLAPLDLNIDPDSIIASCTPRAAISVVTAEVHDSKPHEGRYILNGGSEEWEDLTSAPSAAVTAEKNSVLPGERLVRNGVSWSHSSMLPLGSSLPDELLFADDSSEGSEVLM

T2: recombinant murine MerTK extracellular domain (mouse, UniProt Q60805 19-497)
T2 construct: also called moMerTK; mouse MerTK; not shown: PolyHis tag or TEVS/Thrombin/murine IgG2a Fc tag (a commercial human IgG1 Fc fusion is also mentioned); which form was t
T2 sequence: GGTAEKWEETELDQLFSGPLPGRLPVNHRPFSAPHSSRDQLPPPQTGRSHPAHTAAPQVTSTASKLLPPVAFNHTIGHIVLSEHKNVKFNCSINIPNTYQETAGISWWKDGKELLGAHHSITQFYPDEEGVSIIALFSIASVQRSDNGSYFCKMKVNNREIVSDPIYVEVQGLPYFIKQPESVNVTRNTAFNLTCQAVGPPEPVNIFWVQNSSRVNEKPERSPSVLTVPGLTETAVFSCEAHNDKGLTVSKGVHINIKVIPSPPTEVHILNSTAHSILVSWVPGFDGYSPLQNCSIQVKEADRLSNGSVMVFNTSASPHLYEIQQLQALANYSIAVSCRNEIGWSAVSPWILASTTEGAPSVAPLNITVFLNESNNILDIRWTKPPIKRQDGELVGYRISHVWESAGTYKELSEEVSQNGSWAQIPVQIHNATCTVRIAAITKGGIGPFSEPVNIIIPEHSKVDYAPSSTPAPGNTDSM

T3: human MerTK overexpressed on CHO cells (human, UniProt Q12866 21-999)
T3 construct: also called CHO-huMerTK OE; CHO-human MerTK OE cells
T3 sequence: T1 sequence

B1: monovalent anti-MerTK antibody MTK-16.2 (antibody, V domains shown)
VH: QVQLVQSGSELKKPGASVKVSCKASGYTFTNHGMNWVRQAPGQGLEWMGWINTYTGEPTYADDFKGRFVFSLDTSVSTAYLQISSLKAEDTAVYYCARKGVTAARYFDYWGQGTLVTVSS
VL: DIQMTQSPSSLSASVGDRVTITCRASQNVRTAVAWYQQKPGKAPKRLIYLASNRHTGVPSRFSGSGSGTEFTLTISNLQPEDFATYYCLQHWNYPLTFGGGTKLEIK
B2: bivalent anti-MerTK antibody MTK-16.2 (full IgG) (antibody, V domains shown)
VH: B1 VH
VL: DIQMTQSPSSLSASVGDRVTITCRASQNVRTAVAWYQQKPGKAPKRLIYLASNRHTGVPSRFSGSGSGTEFTLTISNLQPEDFATYYCLQHWNYPLTFGGGTKLEIKR
B3: monovalent anti-MerTK antibody MTK-33.11 (antibody, V domains shown)
VH: QVQLVQSGAEVKKPGASVKVSCKASGYTFTSYWMHWVRQAPGQGLEWIGVIDPSDNYINYNQKFQGRVTMTRDTSTSTVYMELSSLRSEDTAVYYCAREAWTRGYFDYWGQGTLVTVSS
VL: DIQMTQSPSSLSASVGDRVTITCQASRSVRNTVAWYQQKPGKAPKLLIYYASNRYTGVPSRFSGSGSGTDFTFTISSLQPEDIATYYCQQDYRSPFTFGQGTKLEIK
B4: bivalent anti-MerTK antibody MTK-33.11 (full IgG) (antibody, V domains shown)
VH: B3 VH
VL: DIQMTQSPSSLSASVGDRVTITCQASRSVRNTVAWYQQKPGKAPKLLIYYASNRYTGVPSRFSGSGSGTDFTFTISSLQPEDIATYYCQQDYRSPFTFGQGTKLEIKR
B5: bispecific anti-MerTK MTK-33.11:anti-PDL1 antibody (bispecific antibody, V domains shown)
VH 1: B3 VH
VL 1: B3 VL
VH 2: not shown
VL 2: not shown
B6: bispecific anti-MerTK MTK-16.2:anti-PDL1 antibody (bispecific antibody, V domains shown)
VH 1: B1 VH
VL 1: B1 VL
VH 2: not shown
VL 2: not shown

In one assay the target is T1, human MerTK on M2c-differentiated human …. In words: cell-based or functional assay.
On to B1, for which the “Average Efferocytosis blocking IC50” value came to 37.9 nM.
Consider B2, for which the “Average Efferocytosis blocking IC50” value stood at 0.436 nM.
As for B3, the “Average Efferocytosis blocking IC50” value turned out to be 4.45 nM.
As to B4, the “Average Efferocytosis blocking IC50” value is 0.341 nM.
On the same count and under the same terms, under B5 stands 4.42 nM.

The target is the same in the next assay. The assay can be described thus: flow cytometry on M2c-differentiated human macrophages, Dylight650-conjugated antibody; average FACS Kd from Prism fit of MFI. An excerpt:
(§1) Human macrophages were differentiated from human monocytes for 7 days in the presence of human M-CSF, resulting in M2c-differentiated human macrophages. After 7 days, the differentiated human macrophages were harvested (by scraping), resuspended in PBS, and plated on 96-well plates for use. CHO cells overexpressing human MerTK (CHO-huMerTK OE), CHO cells overexpressing human PDL1 (CHO-huPDL1 OE), and M2c-differentiated human macrophages were stained with Dylight650-conjugated bispecific anti-MerTK:anti-PDL1 antibodies, or bivalent anti-MerTK antibodies for 30 min on ice. A range of antibody concentrations were used in these studies to obtain binding curves. All antibodies tested in these studies were IgG1 having Fc regions comprising LALAPS mutations. Cells were fixed and then acquired on a BD FACS Canto II cytometer. The mean fluorescence intensity (MFI) was calculated using FlowJo software and Kd value was calculated using Prism software.
A general note: Flow cytometry measures light scatter and fluorescence of single cells or particles in a stream.
One may read the Kd as the constant that tells how readily two partners part at equilibrium. Turning to B1, binding was characterised by a dissociation constant (Kd) of 77.8 nM.
The molecule B2 returned a Kd of 51.9 nM.
The molecule B3 had a Kd of 9.96 nM.
Still for that read-out and setting: under B4 stands 2 nM.

Another assay deals with T2, recombinant murine MerTK extracellular …. The assay can be described thus: SPR (Carterra LSA), antibody immobilized, MerTK ECD as analyte; estimate, fits not ideal for a 1:1 model. As for the experimental part: (§2) Binding kinetics of bispecific anti-MerTK:anti-PDL1 antibodies of the present disclosure to human, cyno, and murine MerTK were evaluated using a Carterra LSA instrument. […] A HC30 sensor chip (Carterra) was activated using the single channel flow cell with a 7-minute injection of a 1:1:1 mixture of 100 mM MES pH 5.5, 100 mM sulfo-NHS, 400 mM EDC (all reconstituted in MES pH 5.5; 100 μl of each mixed in vial immediately before running assay). After switching to the multi-channel array flow cell, the antibodies were injected over the activated chip in a 96-spot array for 15 minutes. A duplicate injection of the antibodies on a second block of the chip was spotted as before. The remaining unconjugated active groups on the chip were then blocked by injecting 1M Ethanolamine pH 8.5 (Carterra) for 7 minutes using the single channel flow cell.
(§3) After priming with running buffer (HBS-TE, Carterra) with 0.5 mg/ml BSA (Sigma), the immobilized anti-MerTK antibodies were tested for their ability to bind to several forms of recombinant MerTK extracellular domain, including that of human, cynomolgus, and mouse orthologs as described above. Estimates of affinity were generated by injecting each analyte over the entire antibody array using the single channel flow cell. […] Dissociation was followed for 300 seconds before regenerating after each injection with 2×30 seconds of 10 mM Glycine pH2.5. Three buffer blanks were run between each series (one species per series). After all concentrations of all three species of MerTK were injected, a duplicate set of injections was performed, so that each concentration for all three species was injected in widely spaced duplicates. Data were processed and analyzed using NextGenKIT high-throughput kinetics analysis software (Carterra).
B3: the Kd is 40 nM.
For B4, the Kd was 50 nM.
As to B5, the Kd is 40 nM.

Another assay deals with T3, human MerTK overexpressed on CHO cells. The assay can be described thus: flow cytometry on CHO-huMerTK OE cells, Dylight650-conjugated antibody; average FACS Kd from Prism fit of MFI.
Description: as §1
The molecule B1 registered a Kd of 40.5 nM.
B2 registered a Kd of 42.5 nM.
In the case of B6, the Kd came out at 48.3 nM.
The molecule B3 came in with a Kd of 4.97 nM.
On the same count and under the same terms, to B4 belongs 0.439 nM; to B5, 3.25 nM.

In the next assay the target is T2, recombinant murine MerTK extracellular …. The assay can be described thus: SPR (Carterra LSA), antibody immobilized, MerTK ECD as analyte. As to the method: as §2, §3
B1: the binding result is given as “no binding”.
Turning to B2, the binding result is recorded as “no binding”.
Still for that read-out and setting: under B6 stands “no binding”.

(Values after patent US20240279341A1 (Alector, published 2024).)
